Laboratory results from PMC7486400, “Allosteric coupling between α-rings of the 20S proteasome” (Nature Communications, 2020).
Where “and” joins values, the source holds several entries; their conditions need not be identical. Equal entries are not always repeated.

B1: Thermoplasma acidophilium 20S proteasome α-subunit, wild type, full-length (natural protein, UniProt P25156 1-233, looked up)
chain: MQQGQMAYDRAITVFSPDGRLFQVEYAREAVKKGSTALGMKFANGVLLISDKKVRSRLIEQNSIEKIQLIDDYVAAVTSGLVADARVLVDFARISAQQEKVTYGSLVNIENLVKRVADQMQQYTQYGGVRPYGVSLIFAGIDQIGPRLFDCDPAGTINEYKATAIGSGKDAVVSFLEREYKENLPEKEAVTLGIKALKSSLEEGEELKAPEIASITVGNKYRIYDQEEVKKFL
notes: 20S proteasome α-subunit of Thermoplasma acidophilum, full-length; For the asymmetric CP the wild-type ring was co-expressed from α-His and α-MBP (both C-terminal, TEV site before the tag); All tags were removed after final purification, so the subunit is untagged in the EM samples; All these forms are kept as one molecule here; also called αWT; αwt
B2: Thermoplasma acidophilium 20S proteasome α-subunit R28L (natural protein, UniProt P25156 1-233, looked up)
chain: MQQGQMAYDRAITVFSPDGRLFQVEYALEAVKKGSTALGMKFANGVLLISDKKVRSRLIEQNSIEKIQLIDDYVAAVTSGLVADARVLVDFARISAQQEKVTYGSLVNIENLVKRVADQMQQYTQYGGVRPYGVSLIFAGIDQIGPRLFDCDPAGTINEYKATAIGSGKDAVVSFLEREYKENLPEKEAVTLGIKALKSSLEEGEELKAPEIASITVGNKYRIYDQEEVKKFL
notes: also called proximal α-ring of PAN-αWTββα_(K66A)
B3: Thermoplasma acidophilium 20S proteasome α-subunit K66A (natural protein, UniProt P25156 1-233, looked up)
chain: MQQGQMAYDRAITVFSPDGRLFQVEYAREAVKKGSTALGMKFANGVLLISDKKVRSRLIEQNSIEAIQLIDDYVAAVTSGLVADARVLVDFARISAQQEKVTYGSLVNIENLVKRVADQMQQYTQYGGVRPYGVSLIFAGIDQIGPRLFDCDPAGTINEYKATAIGSGKDAVVSFLEREYKENLPEKEAVTLGIKALKSSLEEGEELKAPEIASITVGNKYRIYDQEEVKKFL
notes: 20S proteasome α-subunit of Thermoplasma acidophilum, full-length, K66A; In the EM samples the K66A ring (distal ring of the asymmetric CP) is untagged; also called α_(K66A); distal α-ring; source: E. coli BL21(DE3), purified (strep-trap column)

What was measured:
[1] = target: in vitro assembled asymmetric Thermoplasma acidophilium 20S core particle αWTββα_(K66A) (Thermoplasma acidophilium) (UniProt P25156)
[2] = target: in vitro assembled symmetric wild-type Thermoplasma acidophilium 20S core particle αWTββαWT (Thermoplasma acidophilium) (UniProt P25156)
[3] = target: in vitro assembled asymmetric Thermoplasma acidophilium 20S core particle αWTββα_(K66A) (Thermoplasma acidophilium) (UniProt P25156); remark: listed apart in the source
[4] = target: in vitro assembled symmetric wild-type Thermoplasma acidophilium 20S core particle αWTββαWT (Thermoplasma acidophilium) (UniProt P25156); remark: listed apart in the source
[5] = target: the molecule itself; assay: negative stain EM; α-subunits expressed in E. coli and purified alone; Supplementary Fig. 1c–i (panel c is negative stain EM; the method of the other panels was not shown)
[6] = target: B3; assay: in vitro reconstitution with two-step affinity purification; two types of purified α-subunits and β-subunit mixed 1:2:1 in Tris buffer pH 7.5, 1 h at 37 °C; strep-trap column (α K66A), TEV cleavage of all tags except MBP, then MBP column (wild-type α); details: both partners purified
[7] = target: the molecule itself; assay: cryo-EM structure; single-particle cryo-EM of asymmetric CP with one activator bound, with or without substrate (LFP, GFP-ssrA), C7 symmetry applied, about 3 Å; PAN complexes with nucleotide
[8] = target: B1; assay: as above; details: both partners purified
[9] = target: B2; assay: as above; details: both partners purified

Question: Which results are given for “PA26 (Trypanosoma brucei) with the point mutation V230F (natural protein)”?
Answer: Kcat (1/min) of LFP peptidase activity, CP with PA26 (singly capped) [1]: 25.5 min⁻¹; Vmax (μM/min) of LFP peptidase activity, CP with PA26 (singly capped) [1]: 409 µM/min; Kcat (1/min) of LFP peptidase activity, CP with PA26 (doubly capped) [2]: 50.3 min⁻¹; Vmax (μM/min) of LFP peptidase activity, CP with PA26 (doubly capped) [2]: 805 µM/min

Question: “PA26PANc: PA26 (Trypanosoma brucei) with E102A and the last eight C-terminal residues replaced with the last eight C-terminal residues of PAN” was tested. Which Kcat (1/min) of LFP peptide degradation, 16 nM CP with 112 nM activator (singly capped) [3] did it give?
Answer: 14.4 min⁻¹

Question: What about the Vmax (μM/min) of LFP peptide degradation, 16 nM CP with 112 nM activator (singly capped) [3] of the same molecule?
Answer: 230 µM/min

Question: And the Kcat (1/min) of LFP peptide degradation, 16 nM CP with 112 nM activator (doubly capped) [4]?
Answer: 12.4 min⁻¹

Question: What about the Vmax (μM/min) of LFP peptide degradation, 16 nM CP with 112 nM activator (doubly capped) [4] of the same molecule?
Answer: 199 µM/min

Question: B1 was tested. Which “stoichiometry N” value [5] did it give?
Answer: 7 and 14

Question: Does B1 bind [6]?
Answer: binds

Question: Does B2 bind [7]?
Answer: binds

Question: Does B3 bind [7]?
Answer: binds

B4: Thermoplasma acidophilium 20S proteasome β-subunit, pro-peptide truncated (residues 2–8 removed) (natural protein)
chain: TTTVGITLKDAVIMATERRVTMENFIMHKNGKKLFQIDTYTGMTIAGLVGDAQVLVRYMKAELELYRLQRRVNMPIEAVATLLSNMLNQVKYMPYMVQLLVGGIDTAPHVFSIDAAGGSVEDIYASTGSGSPFVYGVLESQYSEKMTVDEGVDLVIRAISAAKQRDSASGGMIDVAVITRKDGYVQLPTDQIESRIRKLGLIL
notes: 20S proteasome β-subunit of Thermoplasma acidophilum; residues 2–8 truncated to simulate the autoproteolytic removal of the N-terminal pro-peptide; A protease (TEV) site stands before the tag; Tags were removed after final purification of the assembled CP; also called β monomers; source: E. coli BL21(DE3), purified (Ni-NTA)
Question: Does B4 bind [8]?
Answer: binds

Question: Does B4 bind [9]?
Answer: binds

Question: Does B4 bind [6]?
Answer: binds
